Laboratory results published in US20240261333A1, “NOVEL TARGETS FOR ENHANCING ANTI-TUMOR IMMUNITY” (THE BROAD INSTITUTE, INC., priority 2021, published 2024).

T1: B3GNT2 (Homo sapiens, UniProt Q9NY97)
T1 construct: The respective ORFs of candidate genes [CD274 (NM_014143), MCL1 (NM_021960), JUNB (NM_002229), and B3GNT2 (NM_006577)] were synthesized; expressed in transfected cells; host or cells: A375 melanoma cells (lentiviral ORF overexpression)
T1 sequence (Q9NY97 1-397): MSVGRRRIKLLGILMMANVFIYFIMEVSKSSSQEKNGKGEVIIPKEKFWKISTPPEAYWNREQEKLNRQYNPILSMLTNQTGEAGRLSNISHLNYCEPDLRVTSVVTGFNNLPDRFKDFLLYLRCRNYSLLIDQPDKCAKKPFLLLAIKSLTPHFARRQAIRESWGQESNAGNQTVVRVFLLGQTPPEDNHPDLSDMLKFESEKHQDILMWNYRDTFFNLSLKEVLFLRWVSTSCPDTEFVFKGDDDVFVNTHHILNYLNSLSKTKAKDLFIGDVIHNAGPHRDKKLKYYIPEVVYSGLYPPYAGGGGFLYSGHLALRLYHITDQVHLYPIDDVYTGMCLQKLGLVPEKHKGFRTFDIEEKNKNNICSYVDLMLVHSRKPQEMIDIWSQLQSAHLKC

B1: NUFIP2 (protein)
chain: MEEKPGQPQPQHHHSHHHPHHHPQQQQQQPHHHHHYYFYNHSHNHHHHHHHQQPHQYLQHGAEGSPKAQPKPLKHEQKHTLQQHQETPKKKTGYGELNGNAGEREISLKNLSSDEATNPISRVLNGNQQVVDTSLKQTVKANTFGKAGIKTKNFIQKNSMDKKNGKSYENKSGENQSVDKSDTIPIPNGVVTNNSGYITNGYMGKGADNDGSGSESGYTTPKKRKARRNSAKGCENLNIVQDKIMQQETSVPTLKQGLETFKPDYSEQKGNRVDGSKPIWKYETGPGGTSRGKPAVGDMLRKSSDSKPGVSSKKFDDRPKGKHASAVASKEDSWTLFKPPPVFPVDNSSAKIVPKISYASKVKENLNKTIQNSSVSPTSSSSSSSSTGETQTQSSSRLSQVPMSALKSVTSANFSNGPVLAGTDGNVYPPGGQPLLTTAANTLTPISSGTDSVLQDMSLTSAAVEQIKTSLFIYPSNMQTMLLSTAQVDLPSQTDQQNLGDIFQNQWGLSFINEPSAGPETVTGKSSEHKVMEVTFQGEYPATLVSQGAEIIPSGTEHPVFPKAYELEKRTSPQVLGSILKSGTTSESGALSLEPSHIGDLQKADTSSQGALVFLSKDYEIESQNPLASPTNTLLGSAKEQRYQRGLERNDSWGSFDLRAAIVYHTKEMESIWNLQKQDPKRIITYNEAMDSPDQ
B2: DNAJC3 (protein)
chain: GVNADVEKHLELGKKLLAAGQLADALSQFHAAVDGDPDNYIAYYRRATVFLAMGKSKAALPDLTKVIQLKMDFTAARLQRGHLLLKQGKLDEAEDDFKKVLKSNPSENEEKEAQSQLIKSDEMQRLRSQALNAFGSGDYTAAIAFLDKILEVCVWDAELRELRAECFIKEGEPRKAISDLKAASKLKNDNTEAFYKISTLYYQLGDHELSLSEVRECLKLDQDHKRCFAHYKQVKKLNKLIESAEELIRDGRYTDATSKYESVMKTEPSIAEYTVRSKERICHCFSKDEKPVEAIRVCSEVLQMEPDNVNALKDRAEAYLIEEMYDEAIQDYETAQEHNENDQQIREGLEKAQRLLKQSQKRDYYKILGVKRNAKKQEIIKAYRKLALQWHPDNFQNEEEKKKAEKKFIDIAAAKEVLSDPEMRKKFDDGEDPLDAESQQGGGGNPFHRSWNSWQGFNPFSSGGPFRFKFHFN
B3: DDX5 (protein)
chain: MSGYSSDRDRGRDRGFGAPRFGGSRAGPLSGKKFGNPGEKLVKKKWNLDELPKFEKNFYQEHPDLARRTAQEVETYRRSKEITVRGHNCPKPVLNFYEANFPANVMDVIARQNFTEPTAIQAQGWPVALSGLDMVGVAQTGSGKTLSYLLPAIVHINHQPFLERGDGPICLVLAPTRELAQQVQQVAAEYCRACRLKSTCIYGGAPKGPQIRDLERGVEICIATPGRLIDFLECGKTNLRRTTYLVLDEADRMLDMGFEPQIRKIVDQIRPDRQTLMWSATWPKEVRQLAEDFLKDYIHINIGALELSANHNILQIVDVCHDVEKDEKLIRLMEEIMSEKENKTIVFVETKRRCDELTRKMRRDGWPAMGIHGDKSQQERDWVLNEFKHGKAPILIATDVASRGLDVEDVKFVINYDYPNSSEDYIHRIGRTARSTKTGTAYTFFTPNNIKQVSDLISVLREANQAINPKLLQLVEDRGSGRSRGRGGMKDDRRDRYSAGKRGGFNTFRDRENYDRGYSSLLKRDFGAKTQNGVYSAANYTNGSFGSNFVSAGIQTSFRTGNPTGTYQNGYDSTQQYGSNVPNMHNGMNQQAYAYPATAAAPMIGYPMPTGYSQ
B4: GGCT (protein)
chain: MANSGCKDVTGPDEESFLYFAYGSNLLTERIHLRNPSAAFFCVARLQDFKLDFGNSQGKTSQTWHGGIATIFQSPGDEVWGVVWKMNKSNLNSLDEQEGVKSGMYVVIEVKVATQEGKEITCRSYLMTNYESAPPSPQYKKIICMGAKENGLPLEYQEKLKAIEPNDYTGKVSEEIEDIIKKGETQTL
B5: MOV10 (protein)
chain: MPSKFSCRKLRETGQRFESFLAERGLDLETDRERLRTIYNHDFKPSYGTPAPGFSSMLYGMKIANLAFVTKTRVRFFKLDRWADVQLPEKRRIKPGSNISKQHRSLLARIFHDRAEYLHGKHGVDVEVQGPHEARDGQLLIHLDLNRKEVLTLRLRNGGSKPVTLTHLFPLCWTPQFVFYHGEQDLPCPLGPGESYELHIYCKTSIVGYFPATVLWELLGPGESGAEGAETFYIARFLAAVAHSPLAAQLKPTTPFKRPPRLTRNSVLTNRIEEGERPDRAKGYELELSLALGTYYPPILLRQLLPTLLQGPSIFTAPKEVAEIKAQLETTLKSRNYEVKLRLLLHLEELQMEHDIRHYDLDSVPMTWDPVDQNPRLLTLEVPGVAESRPSVLRGDHLFALLSSETQQDDPVTYKGFVHKVELDRVKLSFSTSLLSRFVDGLTFKVNFTFNRQPLRVQHRALELTGRWVLWPMLFPVASRGVSLLPSDVKFKLYDRSLESNPEQLQAMKHIVRGTTRPAPYIIFGPPGTGKTVTLVEAIKQVVKHLPKAHILACAPSNSGADLLCQRLRVHLPSSIYRLLAPSRDIRMVPEDIKTCCNWDAKKGEYVYPAKKHLQQYRVLITTLITASRLVSAQFPIDHFTHIFIDEAGHCMEPESLVAIAGLMDVKETGNPGGQLVLAGDPRQLGPVLRSPLALKHGLGYSLLERLLAYNSLYKKGPNGYDPQFITKLLRNYRSHPTILDIPNQLYYDGELQACADVVDRERFCRWEGLPQQGFPIIFHGVMGKDEREGNSPSFFNPEEAATVTSYLKQLLAPSSKKGKARLSPRNVGVISPYRKQVEKIRYCITKLDRELRGLDDIKDLKVGSVEEFQGQERSVILISTVRSSQSFVQLDLDFNLGFLKNPKRFNVAVTRAKALLIVVGNPLLLGHDPDWKTFLEFCKENGGYTGCPFPAKLDLQQGQDLLQGLSKLSPSTSGPRRHQNLPQEREGEGGLPLQVEPEWRNEL
B6: LSM12 (protein)
chain: AAPPGEYFSVGSQVSCRTCQEQRLQGEVVAFDYQSKMLALKCPSSSGKPNHADILLINLQYVSEVEIINDRTETPPPLASLNVSKLASKARTEKEEKLSQAYAISAGVSLEGQQLFQTIHKTIKDCKWQEKNIVVMEEVVITPPYQVENCKGKEGSALSHVRKIVEKHFRDVESQKILQRSQAQQPQKEAALSS
B7: FUBP3 (protein)
chain: AELVQGQSAPVGMKAEGFVDALHRVRQIAAKIDSIPHLNNSTPLVDPSVYGYGVQKRPLDDGVGNQLGALVHQRTVITEEFKVPDKMVGFIIGRGGEQISRIQAESGCKIQIASESSGIPERPCVLTGTPESIEQAKRLLGQIVDRCRNGPGFHNDIDSNSTIQEILIPASKVGLVIGRGGETIKQLQERTGVKMVMIQDGPLPTGADKPLRITGDAFKVQQAREMVLEIIREKDQADFRGVRGDFNSRMGGGSIEVSVPRFAVGIVIGRNGEMIKKIQNDAGVRIQFKPDDGISPERAAQVMGPPDRCQHAAHIISELILTAQERDGFGGLAAARGRGRGRGDWSVGAPGGVQEITYTVPADKCGLVIGKGGENIKSINQQSGAHVELQRNPPPNSDPNLRRFTIRGVPQQIEVARQLIDEKVGGTNLGAPGAFGQSPFSQPPAPPHQNTFPPRSSGCFPNMAAKVNGNPHSTPVSGPPAFLTQGWGSTYQAWQQPTQQVPSQQSQPQSSQPNYSKAWEDYYKKQSHAASAAPQASSPPDYTMAWAEYYRQQVAFYGQTLGQAQAHSQEQ
B8: SAMM50 (protein)
chain: MGTVHARSLEPLPSSGPDFGGLGEEAEFVEVEPEAKQEILENKDVVVQHVHFDGLGRTKDDIIICEIGDVFKAKNLIEVMRKSHEAREKLLRLGIFRQVDVLIDTCQGDDALPNGLDVTFEVTELRRLTGSYNTMVGNNEGSMVLGLKLPNLLGRAEKVTFQFSYGTKETSYGLSFFKPRPGNFERNFSVNLYKVTGQFPWSSLRETDRGMSAEYSFPIWKTSHTVKWEGVWRELGCLSRTASFAVRKESGHSLKSSLSHAMVIDSRNSSILPRRGALLKVNQELAGYTGGDVSFIKEDFELQLNKQLIFDSVFSASFWGGMLVPIGDKPSSIADRFYLGGPTSIRGFSMHSIGPQSEGDYLGGEAYWAGGLHLYTPLPFRPGQGGFGELFRTHFFLNAGNLCNLNYGEGPKAHIRKLAECIRWSYGAGIVLRLGNIARLELNYCVPMGVQTGDRICDGVQFGAGIRFL

Each molecule was assayed against T1, B3GNT2 (assay: Co-IP of FLAG-tagged B3GNT2 followed by mass spectrometry). Settings: Co-IP followed by mass spectrometry of B3GNT2; C-term tag, FLAG pull-down.
Type: cell-based
Set-up: C-term IgG / C-term flag: unit not given here
Outline: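 FLAG-tagged B3GNT2 immunoprecipitated from cell lysate (HEPES, 1% Triton X-100, 150 mM NaCl) with anti-FLAG versus […], overnight at 4° C, then captured on Protein A/G magnetic beads for 4 h. Two biological replicates per condition. Peptides fractionated and analyzed by nano-LC on an Orbitrap Elite in data-dependent mode.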

Row | Molecule | C-term flag
1 | B1 | 5
2 | B2 | 3
3 | B3 | 22
4 | B4 | 0
5 | B5 | 3
6 | B6 | 4
7 | B7 | 9
8 | B8 | 0

Same assay, conditions: Co-IP followed by mass spectrometry of B3GNT2; C-term tag, IgG pull-down

Row | Molecule | C-term IgG
9 | B1 | 4
10 | B2 | 0
11 | B3 | 16
12 | B4 | 0
13 | B5 | 3
14 | B6 | 0
15 | B7 | 7
16 | B8 | 0

Same assay, conditions: Co-IP followed by mass spectrometry of B3GNT2; N-term tag, FLAG pull-down

Row | Molecule | N-term FLAG
17 | B1 | 3
18 | B2 | 0
19 | B3 | 16
20 | B4 | 3
21 | B5 | 4
22 | B6 | 4
23 | B7 | 8
24 | B8 | 3

Same assay, conditions: Co-IP followed by mass spectrometry of B3GNT2; N-term tag, IgG pull-down

Row | Molecule | N-term IgG
25 | B1 | 3
26 | B2 | 0
27 | B3 | 18
28 | B4 | 0
29 | B5 | 3
30 | B6 | 2
31 | B7 | 8
32 | B8 | 0
